Data as given in patent US20070105162A1, “Monovalent avidin and streptavidin compositions” (Massachusetts Institute of Technology, priority 2005, published 2007).

Assay: Biotin binding of avidin triple mutant (D4)
Experimental: After incubation at room temperature for 20 hr, the protein is precipitated by adding 50 μL to 200 μL 0.2 M ZnSO4 followed by 200 μL 0.2 M NaOH. The protein precipitate is pelleted by centrifugation at 16,500 g for 5 min. The biotin bound by D4 is calculated from the total ^3H-biotin added minus the ^3H-biotin in the supernatant. The Kd is obtained using a nonlinear regression analysis (one-site binding hyperbola) with SigmaPlot (Systat Software; Point Richmond, Calif.).
Methods provided in the Methods section above are used to make and test the monovalent avidin. We produce an avidin tetramer consisting of three subunits unable to bind biotin and one subunit that binds biotin as well as wild-type avidin. A triple mutant N12A, S16D, T35A is produced. […] The binding of this triple mutant (composed of “Dead” subunits-D) is so weak that it is difficult to measure. To generate monovalent avidin the wild-type subunit is first tagged with a His6-tag (“Alive” subunit-A). Then D and A subunits are combined at a molar ratio of 3:1 in guanidinium hydrochloride and refolded by rapidly diluting the mixture into PBS. This refold generates a mix of avidin tetramers of different compositions.

- biotin binding of avidin triple mutant: negligible biotin binding
B1: D4 avidin: Avidin tetramer of four Dead subunits (N12A, S16D, T35A, SEQ ID NO:18) (protein)
chain: ARKCSLTGKWTADLGDNMTIGAVNSRGEFTGTYIAAVTATSNEIKESPLHGTQNTINKRTQPTFGFTVNWKFSESTTVFTGQCFIDRNGKEVLKTMWLLRSSVNDIGDDWKATRVGINIFTRLRTQKE
modifications: tetramer
